Substrate in data set [1]: O=C(/C=C/c1ccc(O)cc1)NCCc1ccc(O)cc1
Put plainly: HPLC product assay, Michaelis-Menten fit. The format is biochemical, Anthoceros agrestis. The following applies: co-substrate NADPH, with Coleus blumei CPR, pH 7.0, 30 °C, crude extract.

Substrate in data set [2]: O=C(/C=C/c1ccc(O)cc1)Nc1c(O)cccc1C(=O)O
Put plainly: HPLC product assay, Michaelis-Menten fit. In kind it is biochemical, Anthoceros agrestis. The following applies: co-substrate NADPH, with Coleus blumei CPR, pH 7.0, 30 °C, crude extract.

Substrate in data set [3]: O=C(/C=C/c1ccc(O)cc1)Nc1ccccc1C(=O)O
Put plainly: HPLC product assay, Michaelis-Menten fit. In kind it is biochemical, Anthoceros agrestis. Particulars: co-substrate NADPH, with Coleus blumei CPR, pH 7.0, 30 °C, crude extract.

Substrate in data set [4]: O=C(O)c1cccc(O)c1O
Put plainly: HPLC product assay, Michaelis-Menten fit. The format is biochemical, Anthoceros agrestis. The following applies: co-substrate p-coumaroyl-CoA, 30 °C, crude extract, ester formed.

Substrate in data set [5]: CC(C)(COP(=O)(O)OP(=O)(O)OC[C@H]1O[C@@H](n2cnc3c(N)ncnc32)[C@H](O)[C@@H]1OP(=O)(O)O)[C@@H](O)C(=O)NCCC(=O)NCCSC(=O)/C=C/c1ccc(O)c(O)c1
Put plainly: HPLC product assay, Michaelis-Menten fit. The format is biochemical, Anthoceros agrestis. Particulars: co-substrate shikimic acid, pH 7.0, 30 °C, crude extract, pH 7.0.

Substrate in data set [6]: Nc1c(O)cccc1C(=O)O
Put plainly: HPLC product assay, Michaelis-Menten fit. The format is biochemical, Anthoceros agrestis. Particulars: co-substrate p-coumaroyl-CoA, pH 9.0, 30 °C, crude extract, amide formed, pH 9.0.

Substrate in data set [7]: CC(C)(COP(=O)(O)OP(=O)(O)OC[C@H]1O[C@@H](n2cnc3c(N)ncnc32)[C@H](O)[C@@H]1OP(=O)(O)O)[C@@H](O)C(=O)NCCC(=O)NCCSC(=O)/C=C/c1ccc(O)cc1
Put plainly: HPLC product assay, Michaelis-Menten fit. In kind it is biochemical, Anthoceros agrestis. Particulars: co-substrate shikimic acid, pH 7.0, 30 °C, crude extract, pH 7.0.

Substrate in data set [8]: O=C(O)C1=C[C@@H](O)[C@@H](O)[C@H](O)C1
Put plainly: cells, lysate or membranes. Particulars: co-substrate p-coumaroyl-CoA, pH 7.0, 30 °C, crude extract.

B1: AaCYP98 (CYP98A147; coAaCYP98 + CbCPR) (Anthoceros agrestis) (protein)
chain: MAELVVRAVLALIAVAVAAGFLFYRARWSRYKLPPGPKPRLFVGNLLDVTAVRFKCFEQWAKVYGPVMSVWMGATLNVVVSSAEGAKEVLKDKDQSLAARARSRAAAKFSRDGQDLIWADYGPHYVKVRKVCNVELFTPKRLEALRPIRQDEVSAMVHKIHRDAPKGPVNPKKYLSAMAFNNITRLAFGKRFVDDEGKIDSQGVEFKEVIGQGMKLGASLKISEHIPSIRWMFPLQNEEFAKHGARRDTLTRTIMKEHAALRETLGPQSHFVDALLGLQKQYDLSETTIIGLLWDMVTAGMDTVAITVEWALAELIRNPEVQRKAQEELDAVVGDETVLTEAHFSKLPYLTALTKESLRLHPPTPLMLPHKCTEDVKIQGYDIPKGTVVHCNIYVIARDPAVWKEPLAFRPERFLEQDVDIKGHDFRLLPFGAGRRVCPGAQLGLNMVQLMIGRLLHQFSWSPPEGVRAEDISLEERSGIVTYMAKSLEAVATPRLPQALYARNV
notes: with NADPH--cytochrome P450 reductase (Coleus blumei)
As to B1, the Michaelis constant (Km) in data set [1] is listed as 36.3 ± 3.6 µM; in data set [2], 9.3 ± 0.7 µM; in data set [3], 6.4 ± 0.8 µM.

B2: AaHCT6 (Anthoceros agrestis) (protein)
chain: MKVSIKKETMVPPAEETPQVALWASNVDLIIPQIHTSSVYFYRPSGSPDFFSGDVLRDALAKALVPFYPMAGRLARDQDGRIQINCNAAGVLLVEAEADVSIDDLGGFAPHPVLQQLVPTVVYTKDITAFPLLVLQVTRFKCGGASLGVGMEHHIADGTSGIHFINTWSDVARGEGVKVLPFVDRTLLRARSPPTPQFEHVEYQTPFTLQPRFRPEEGSEKVETVVESFTFSREQLGKLKAMVADPGANLAYSSYVALSAHIWRCATRARGLSGDQPSKLFVATDGRARLRPPLPRGYFGNVIFTCTPVAEAEELVAKPLIRTAARIQEAVLKMGDEYLRSALDYLELLPDMSVCIRGAAHFGNPNLCITSWSGLPVYDCDFGWGRAIHMGPCQIGFEGLCFVLGSATKDGSLGLALRLRADHMADFRKLVNDI
In the case of B2, the Km amounted to 1025.9 ± 59.7 µM in data set [4]; 19.2 ± 16.2 µM in data set [5]; 153.1 ± 33.8 µM in data set [6]; 14.4 ± 1.4 µM in data set [7]; 24.6 ± 10.4 µM in data set [8].

For orientation: Km means the concentration of substrate that gives half-maximal velocity.

(Values after paper PMC8891189, “Hydroxycinnamoyltransferase and CYP98 in phenolic metabolism in the rosmarinic acid-producing hornwort Anthoceros agrestis” (Planta, 2022).)
